The results in this text go back to paper PMC4328750 (EMBO Reports, 2014).

This assay concerns the target purified recombinant endophilin A1-SH3 (ITC and NMR) (UniProt O35179 291-352). The assay is described as follows: ITC.

Chain of purified recombinant endophilin A1-SH3 (ITC and NMR) (O35179 291-352): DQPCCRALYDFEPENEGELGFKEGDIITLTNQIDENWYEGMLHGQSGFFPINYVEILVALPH

B1: purified recombinant intersectin 1-SH3B (ITC and NMR) (domain or fragment)
chain: LQAQALYPWRAKKDNHLNFNKNDVITVLEQQDMWWFGEVQGQKGWFPKSYVKLIS
Broadly, the Kd is a measure of binding affinity in units of concentration. As a reminder, the stoichiometry N is the number of molecules, sites or subunits per partner or assembly. B1: the Kd is ~30 µM and the “stoichiometry N” value worked out at 1.
